The record followed here is paper PMC8561297.

The target in experiment [1] is von Willebrand factor (human (endogenous in whole blood)) (UniProt P04275).
Experiment [2] has the same target. This is another data set of the same source.

In experiment [1], “platelet GPIbα (from UniProt P07359 17-652) (receptor)” gave a platelet adhesion at the stenosis apex, control (platelets/mm^2) of 3930; a platelet adhesion in the stenosis outlet, control (platelets/mm^2) of 5040; a platelet rolling velocity at the stenosis apex, control of 4.41 μm s^-1; a platelet rolling velocity at the stenosis apex, with scFv A1 of 4.6 μm s^-1. In experiment [2], this substance came in with a share of slow-rolling platelets at constant shear of 36% and a share of slow-rolling platelets at shear rate gradient of 52.9%.
